Laboratory results as given in the supplement of paper PMC11780869.

Tested on: Bacillus subtilis
Assay: cleaved RNA product abundance (RNA/gDNA barcode ratio) relative to median wild-type variant (ratio to wild type); higher = more accumulation of the downstream cleavage product
Settings: cleavage site: cggR-gapA (positions -7 to +36 mutated)
Protocol: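 MPRA in B. subtilis. Mutagenized RNase Y cleavage-site regions (9% mutation rate) were inserted into a barcoded reporter mRNA (truncated aprE or tetM). Cells were grown in LB at 37°C to OD600 0.3. The cleaved RNA isoform was gel-purified and its barcodes counted; the RNA:gDNA barcode ratio was normalised to the median wild-type variant, and the median over barcodes is reported per variant. The printed sequence is the variable window only; the reporter flanks are not printed.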

[1] = experiment (reporter, strain, medium): exp 4a: truncated aprE reporter, strain BJT201 with 2% xylose (RNase J1 expressed)
[2] = experiment (reporter, strain, medium): exp 2b: truncated aprE reporter, strain BJT200

Row | Sequence | cleaved RNA product abundance [1] | cleaved RNA product abundance [2] | cleaved RNA product abundance (experiment (reporter, strain, medium): exp 6: tetM reporter, strain 168)
1 | ACAGACGAAGGAGCCGCAAAGAAATTATTAAGGGATGAATAAGCCCTCAATATAAATATCTCTCACTTATTTAAA | 0.416 |  | 
2 | ACAGACGAAGGAGCCGCAAAGAAATTATTAAGGGATGAATAATAACTCAATATAAATATCTCTCACTTATTTAAA | 0.168 |  | 
3 | ACAGACGAAGGAGCCGCAAAGAAATTATTAAGGGATGAATAATACCTCAATATAAATATCTCTCACTTATTTAAA | 0.153 | 0.141 | 
4 | ACAGACGAAGGAGCCGCAAAGAAATTATTAAGGGATGAATAATCACTCAATATAAATATCTCTCACTTATTTAAA | 0.122 | 0.136 | 
5 | ACAGACGAAGGAGCCGCAAAGAAATTATTAAGGGATGAATAATCCATCAAGATAAATATCTCTCACTTATTTAAA | 0.118 |  | 
6 | ACAGACGAAGGAGCCGCAAAGAAATTATTAAGGGATGAATAATCCATCAATATAAATATCTCTCACTTATTTAAA | 0.201 | 0.163 | 
7 | ACAGACGAAGGAGCCGCAAAGAAATTATTAAGGGATGAATAATCCCACAATATAAATATCTCTCACTTATTTAAA | 0.298 | 0.195 | 
8 | ACAGACGAAGGAGCCGCAAAGAAATTATTAAGGGATGAATAATCCCCCAATATAAATATCTCTCACTTATTTAAA | 0.465 |  | 
9 | ACAGACGAAGGAGCCGCAAAGAAATTATTAAGGGATGAATAATCCCGCAATATAAATATCTCTCACTTATTTAAA | 0.214 |  | 
10 | ACAGACGAAGGAGCCGCAAAGAAATTATTAAGGGATGAATAATCCCTAAATATAAATATCTCTCACTTATTTAAA | 0.667 | 0.458 | 
11 | ACAGACGAAGGAGCCGCAAAGAAATTATTAAGGGATGAATAATCCCTCAAAATAAATATCTCTCACTTATTTAAA | 0.365 | 0.257 | 
12 | ACAGACGAAGGAGCCGCAAAGAAATTATTAAGGGATGAATAATCCCTCAACATAAATATCTCTCACTTATTTAAA | 0.234 |  | 
13 | ACAGACGAAGGAGCCGCAAAGAAATTATTAAGGGATGAATAATCCCTCAAGATAAATATCTCTCACTTATTTAAA | 0.189 | 0.188 | 
14 | ACAGACGAAGGAGCCGCAAAGAAATTATTAAGGGATGAATAATCCCTCAATAAAAATATCTCTCACTTATTTAAA |  | 0.178 | 
15 | ACAGACGAAGGAGCCGCAAAGAAATTATTAAGGGATGAATAATCCCTCAATATAAAAATCTCTCACTTATTTAAA | 0.568 |  | 
16 | ACAGACGAAGGAGCCGCAAAGAAATTATTAAGGGATGAATAATCCCTCAATATAAATAGCTCTCACTTATTTAAA | 0.435 |  | 
17 | ACAGACGAAGGAGCCGCAAAGAAATTATTAAGGGATGAATAATCCCTCAATATAAATATATCTCACTTATTTAAA | 1.19 |  | 
18 | ACAGACGAAGGAGCCGCAAAGAAATTATTAAGGGATGAATAATCCCTCAATATAAATATCTCTCACTTATTTAAA | 0.783 | 0.826 | 0.759
19 | ACAGACGAAGGAGCCGCAAAGAAATTATTAAGGGATGAATAATCCCTCAATATAAATCTCTCTCACTTATTTAAA | 0.66 |  | 

Row | Sequence | cleaved RNA product abundance [1] | cleaved RNA product abundance [2] | cleaved RNA product abundance (experiment (reporter, strain, medium): exp 6: tetM reporter, strain 168)
20 | ACAGACGAAGGAGCCGCAAAGAAATTATTAAGGGATGAATAATCCCTCAATATAAATTTCTCTCACTTATTTAAA | 0.361 |  | 
21 | ACAGACGAAGGAGCCGCAAAGAAATTATTAAGGGATGAATAATCCCTCAATATAACTATCTCTCACTTATTTAAA | 0.325 |  | 
22 | ACAGACGAAGGAGCCGCAAAGAAATTATTAAGGGATGAATAATCCCTCAATATACATATCTCTCACTTATTTAAA | 0.46 |  | 
23 | ACAGACGAAGGAGCCGCAAAGAAATTATTAAGGGATGAATAATCCCTCAATATAGATATCTCTCACTTATTTAAA | 0.474 |  | 
24 | ACAGACGAAGGAGCCGCAAAGAAATTATTAAGGGATGAATAATCCCTCAATATATATATCTCTCACTTATTTAAA | 0.766 |  | 
25 | ACAGACGAAGGAGCCGCAAAGAAATTATTAAGGGATGAATAATCCCTCAATTTAAATATCTCTCACTTATTTAAA | 0.153 |  | 
26 | ACAGACGAAGGAGCCGCAAAGAAATTATTAAGGGATGAATAATCCCTCAGTATAAATATCTCTCACTTATTTAAA | 0.215 |  | 
27 | ACAGACGAAGGAGCCGCAAAGAAATTATTAAGGGATGAATAATCCCTCATTATAAATATCTCTCACTTATTTAAA | 0.514 | 0.197 | 
28 | ACAGACGAAGGAGCCGCAAAGAAATTATTAAGGGATGAATAATCCCTCCATATAAATATCTCTCACTTATTTAAA | 0.338 |  | 
29 | ACAGACGAAGGAGCCGCAAAGAAATTATTAAGGGATGAATAATCCCTCGATATAAATATCTCTCACTTATTTAAA | 0.395 |  | 
30 | ACAGACGAAGGAGCCGCAAAGAAATTATTAAGGGATGAATAATCCCTCTATATAAATATCTCTCACTTATTTAAA | 0.319 | 0.418 | 
31 | ACAGACGAAGGAGCCGCAAAGAAATTATTAAGGGATGAATAATCCCTGAATATAAATATCTCTCACTTATTTAAA | 0.548 | 0.49 | 
32 | ACAGACGAAGGAGCCGCAAAGAAATTATTAAGGGATGAATAATCCCTTAATATAAATATCTCTCACTTATTTAAA | 0.451 |  | 
33 | ACAGACGAAGGAGCCGCAAAGAAATTATTAAGGGATGAATAATCCGTCAATATAAATATCTCTCACTTATTTAAA | 0.261 | 0.192 | 
34 | ACAGACGAAGGAGCCGCAAAGAAATTATTAAGGGATGAATAATCCTTCAATATAAATATCTCTCACTTATTTAAA | 0.674 |  | 
35 | ACAGACGAAGGAGCCGCAAAGAAATTATTAAGGGATGAATAATCGCTCAATATAAATATCTCTCACTTATTTAAA | 0.101 |  | 
36 | ACAGACGAAGGAGCCGCAAAGAAATTATTAAGGGATGAATAATCTCTCAATATAAATATCTCTCACTTATTTAAA | 0.476 |  | 
37 | ACAGACGAAGGAGCCGCAAAGAAATTATTAAGGGATGAATAATGCCTCAATATAAATATCTCTCACTTATTTAAA | 0.132 | 0.172 | 
38 | ACAGACGAAGGAGCCGCAAAGAAATTATTAAGGGATGAATAATTCCTCAATATAAATATCTCTCACTTATTTAAA | 0.415 | 0.457 | 

Row | Sequence | cleaved RNA product abundance [1] | cleaved RNA product abundance [2] | cleaved RNA product abundance (experiment (reporter, strain, medium): exp 6: tetM reporter, strain 168)
39 | ACAGACGAAGGAGCCGCAAAGAAATTATTAAGGGATGAATACTCCCTCAATATAAATATCTCTCACTTATTTAAA |  | 0.416 | 
40 | ACAGACGAAGGAGCCGCAAAGAAATTATTAAGGGATGAATAGTCCCTCAATATAAATATCTCTCACTTATTTAAA | 0.937 |  | 
41 | ACAGACGAAGGAGCCGCAAAGAAATTATTAAGGGATGAATATTCCCTCAATATAAATATCTCTCACTTATTTAAA | 0.595 |  | 
42 | ACAGACGAAGGAGCCGCAAAGAAATTATTAAGGGATGAATGATCCCTCAATATAAATATCTCTCACTTATTTAAA | 0.661 |  | 
43 | ACAGACGAAGGAGCCGCAAAGAAATTATTAAGGGATGAATTATCCCTCAATATAAATATCTCTCACTTATTTAAA | 0.711 | 0.539 | 
44 | ACAGACGAAGGAGCCGCAAAGAAATTATTAAGGGATGACTAATCCCTCAATATAAATATCTCTCACTTATTTAAA | 0.573 | 0.453 | 
45 | ACAGACGAAGGAGCCGCAAAGAAATTATTAAGGGATGACTAATCTCTCAATATAAATATCTCTCACTTATTTAAA | 0.582 |  | 
46 | ACAGACGAAGGAGCCGCAAAGAAATTATTAAGGGATGATTAATCCCTCAATATAAATATCTCTCACTTATTTAAA | 0.599 | 0.816 | 
47 | ACAGACGAAGGAGCCGCAAAGAAATTATTAAGGGATGGATAATCCCTCAATATAAATATCTCTCACTTATTTAAA | 0.62 |  | 
48 | ACAGACGAAGGAGCCGCAAAGAAATTATTAAGGGATGTATAATCCCTCAATATAAATATCTCTCACTTATTTAAA | 0.789 | 0.711 | 
49 | ACAGACGAAGGAGCCGCAAAGAAATTATTAAGGGATTAATAATCCCTCAATATAAATATCTCTCACTTATTTAAA | 0.912 | 0.978 | 
50 | ACAGACGAAGGAGCCGCAAAGAAATTATTAAGGGCTGAATAATCCCTCAATATAAATATCTCTCACTTATTTAAA | 0.498 |  | 
51 | ACAGACGAAGGAGCCGCAAAGAAATTATTAAGGGGTGAATAATCCCTCAATATAAATATCTCTCACTTATTTAAA | 0.734 | 0.541 | 
52 | ACAGACGAAGGAGCCGCAAAGAAATTATTAAGGGTTGAATAATCCCTCAATATAAATATCTCTCACTTATTTAAA | 0.365 |  | 
53 | ACAGACGAAGGAGCCGCAAAGAAATTATTAAGGTATGAATAATCCCTCAATATAAATATCTCTCACTTATTTAAA | 0.105 | 0.122 | 
54 | ACAGACGAAGGAGCCGCAAAGAAATTATTAAGTGATGAATAATCCCTCAAAATAAATATCTCTCACTTATTTAAA | 0.0994 | 0.117 | 
55 | ACAGACGAAGGAGCCGCAAAGAAATTATTAAGTGATGAATAATCCCTCAATATAAATATCTCTCACTTATTTAAA | 0.125 | 0.107 | 
56 | ACAGACGAAGGAGCCGCAAAGAAATTATTAATGAATGAATAATCCCTCAATATAAATATCTCTCACTTATTTAAA | 0.152 |  | 
57 | ACAGACGAAGGAGCCGCAAAGAAATTATTAATGGATGAATAATCCCTCAATATAAATATCTCTCACTTATTTAAA | 0.169 | 0.122 | 
